Numbered stars: 1 amine (or outer) side, 2 acyl side, 3 side chain; on linkers, the order of the positions; unused ones are H or OH. Square brackets hold non-standard residues; d marks the D form. Side chains are listed from the residue outwards. Ends that are not written are not given here. * marks the point of attachment. 40K‑TE PEG = 40 kDa PEG covalently bound via thioether, formed by reaction of the free thiol of the peptide (Cys side chain) with an iodoacetic-functionalized PEG; γGlu = O=C(O)[C@H](CCC(=O)[*:2])N[*:1]; Palmitoyl = CCCCCCCCCCCCCCCC(=O)*; Aib = CC(C)(N)C(=O)O
T1: GIP receptor
T1 sequence (P48546 whole entry, species assumed, looked up): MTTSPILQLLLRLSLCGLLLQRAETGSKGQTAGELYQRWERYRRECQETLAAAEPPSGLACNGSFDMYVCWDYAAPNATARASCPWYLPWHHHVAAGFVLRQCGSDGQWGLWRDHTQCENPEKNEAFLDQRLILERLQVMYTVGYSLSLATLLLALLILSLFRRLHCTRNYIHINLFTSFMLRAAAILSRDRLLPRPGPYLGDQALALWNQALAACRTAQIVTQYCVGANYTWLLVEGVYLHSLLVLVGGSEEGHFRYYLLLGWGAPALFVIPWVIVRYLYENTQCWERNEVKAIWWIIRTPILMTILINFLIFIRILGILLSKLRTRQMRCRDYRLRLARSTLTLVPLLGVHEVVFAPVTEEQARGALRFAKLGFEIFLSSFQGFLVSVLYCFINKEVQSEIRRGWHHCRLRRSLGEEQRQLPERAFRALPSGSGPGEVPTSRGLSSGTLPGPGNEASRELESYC


What was measured:
Assay in all cases: cell-based or functional assay
[1] = target: glucagon receptor
[2] = target: GLP-1 receptor
[3] = target: T1, GIP receptor

Row | Binder | EC50 (nM) at glucagon receptor [1] [nM] | EC50 (nM) at GLP-1 receptor [2] [nM] | EC50 (nM) at GIP receptor [3] [nM]
1 | H[Aib]QGTFTSDYSKYLDEKRA[Aib]EFVC(40K‑TE PEG)WLMDT-NH2 [peptide of SEQ ID NO: 15] | 1.1 | 0.071 | 316
2 | H[Aib]QGTFTSDK([γGlu-γGlu-Palmitoyl])SKYLD[Aib]RAAQDFVQWLMKTK[dE]-OH [peptide of SEQ ID NO: 37] | 0.018 | 0.016 | 3.3

Source: patent US20120329707A1 (INDIANA UNIVERSITY RESEARCH AND TECHNOLOGY, published 2012)
